What was measured:
[1] = biological target: MexA Q93R variant (Pseudomonas aeruginosa) (UniProt P52477); experiment: SEC + other: negative-staining EM; Superdex 200 PC 3.2/30 in 10 mM Tris/HCl pH 7.4, 100 mM NaCl, 0.01% NaN3, 0.05% DDM; peak fraction stained with uranyl acetate, single-particle average image
[2] = biological target: MexB (RND inner membrane transporter) (Pseudomonas aeruginosa) (UniProt P52002); experiment: BLI; OMF or MexB stabilised in biotinylated non-ionic amphipol (BNAPol) immobilised on streptavidin (SAX) biosensors, MexA as analyte (0-100 uM for OMFs, 0-200 uM for MexB); BLItz device, room temperature; 10 mM Tris/HCl pH 7.4, 100 mM NaCl, 0.01% NaN3, 0.05% DDM; Langmuir 1:1 fit
[3] = biological target: OprM C-terminal deletion variant OprM_(Δ473-485) (Pseudomonas aeruginosa) (UniProt Q51487); experiment: as above
[4] = biological target: OprM wild type (outer membrane factor) (Pseudomonas aeruginosa) (UniProt Q51487); experiment: as above
[5] = biological target: OprN (outer membrane factor) (Pseudomonas aeruginosa) (UniProt Q9I0Y7); experiment: as above
[6] = biological target: TolC (outer membrane factor of E. coli) (Escherichia coli) (UniProt P02930); experiment: as above
[7] = biological target: T1, OprM wild type (outer membrane factor) (Pseudomonas aeruginosa, UniProt Q51487 18-485); experiment: as above; conditions: both partners purified
T1 construct: OprM, outer membrane factor of MexA-MexB-OprM, Pseudomonas aeruginosa; Stabilised in biotinylated amphipol (BNAPol) for BLI and in MSP1D1/POPC nanodiscs for the tripartite complexes; also called OprMwt; OMF; source: expressed and purified from bacteria
T1 sequence: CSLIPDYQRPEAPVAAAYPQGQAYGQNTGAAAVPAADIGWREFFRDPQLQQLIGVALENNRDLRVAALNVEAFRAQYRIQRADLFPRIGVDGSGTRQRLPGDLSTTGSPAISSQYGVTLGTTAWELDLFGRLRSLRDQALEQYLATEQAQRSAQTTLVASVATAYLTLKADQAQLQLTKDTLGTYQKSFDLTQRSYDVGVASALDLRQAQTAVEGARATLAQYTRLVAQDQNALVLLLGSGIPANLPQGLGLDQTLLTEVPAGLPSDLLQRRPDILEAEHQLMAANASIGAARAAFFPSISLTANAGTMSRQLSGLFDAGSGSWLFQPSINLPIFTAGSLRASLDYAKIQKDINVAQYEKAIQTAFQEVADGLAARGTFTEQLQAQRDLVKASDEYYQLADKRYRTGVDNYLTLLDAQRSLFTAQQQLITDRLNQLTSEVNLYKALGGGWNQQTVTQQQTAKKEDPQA

| Molecule | stoichiometry N [1] | Kd [2] [µM] | koff [2] [s⁻¹] | kon [2] [M⁻¹ s⁻¹] | Kd [3] [µM] | koff [3] [s⁻¹] | kon [3] [M⁻¹ s⁻¹] | Kd [4] [µM] | koff [4] [s⁻¹] | kon [4] [M⁻¹ s⁻¹] | Kd [5] [µM] | koff [5] [s⁻¹] | kon [5] [M⁻¹ s⁻¹] | Kd [6] [µM] | koff [6] [s⁻¹] | kon [6] [M⁻¹ s⁻¹] | Kd [7] [µM] | koff [7] [s⁻¹] | kon [7] [M⁻¹ s⁻¹] |
| --- | --- | --- | --- | --- | --- | --- | --- | --- | --- | --- | --- | --- | --- | --- | --- | --- | --- | --- | --- |
| MexA Q93R variant (from UniProt P52477 24-383) (natural protein) | 6 | 17.4 | 0.003 | 173 | 25.7 | 0.00263 | 102 | 32.9 | 0.00266 | 81 | 26.9 | 0.00238 | 88 | 17.8 | 0.00191 | 108 |  |  |  |
| MexA wild type (periplasmic adaptor protein of MexA-MexB-OprM) (from UniProt P52477 24-383) (natural protein) |  |  |  |  | 44 | 0.00458 | 103 |  |  |  | 20 | 0.00358 | 177 | 45.8 | 0.0058 | 127 |  |  |  |
| MexA wild type (periplasmic adaptor protein of MexA-MexB-OprM) (natural protein, MexA, periplasmic adaptor protein of the MexA-MexB-OprM efflux system, Pseudomonas aeruginosa; Kept in 0.05% DDM; also called MexAwt; PAP; source: expressed and purified from bacteria) CGKSEAPPPAQTPEVGIVTLEAQTVTLNTELPGRTNAFRIAEVRPQVNGIILKRLFKEGSDVKAGQQLYQIDPATYEADYQSAQANLASTQEQAQRYKLLVADQAVSKQQYADANAAYLQSKAAVEQARINLRYTKVLSPISGRIGRSAVTEGALVTNGQANAMATVQQLDPIYVDVTQPSTALLRLRRELASGQLERAGDNAAKVSLKLEDGSQYPLEGRLEFSEVSVDEGTGSVTIRAVFPNPNNELLPGMFVHAQLQEGVKQKAILAPQQGVTRDLKGQATALVVNAQNKVELRVIKADRVIGDKWLVTEGLNAGDKIITEGLQFVQPGVEVKTVPAKNVASAQKADAAPAKTDSKG |  |  |  |  |  |  |  |  |  |  |  |  |  |  |  |  | 12 | 0.00215 | 180 |

Reference: article PMC8868134, “Molecular Determinants for OMF Selectivity in Tripartite RND Multidrug Efflux Systems” (Antibiotics, 2022)
